Source: patent publication US20060003399A1, “High throughput actin polymerization assay” (Cytokinetics, Inc., priority 2004, published 2006)
“Also recorded” adds a separate entry of the source. Where two headings read alike, the source gives them in different places.

B1: 105WASP: amino acids 105-501 of SEQ ID NO:2; WASP lacking the WH1 domain (protein, listed as Homo sapiens)
chain: LVYSTPTPFFHTFAGDDCQAGLNFADEDEAQAFRALVQEKIQKRNQRQSGDRRQLPPPPTPANEERRGGLPPLPLHPGGDQGGPPVGPLSLGLATVDIQNPDITSSRYRGLPAPGPSPADKKRSGKKKISKADIGAPSGFKHVSHVGWDPQNGFDVNNLDPDLRSLFSRAGISEAQLTDAETSKLIYDFIEDQGGLEAVRQEMRRQEPLPPPPPPSRGGNQLPRPPIVGGNKGRSGPLPPVPLGIAPPPPTPRGPPPPGRGGPPPPPPPATGRSGPLPPPPPGAGGPPMPPPPPPPPPPPSSGNGPAPPPLPPALVPAGGLAPGGGRGALLDQIRQGIQLNKTPGAPESSALQPPPQSSEGLVGALMHVMQKRSRAIHSSDEGEDQAGDEDEDDEWD
modifications: (1)..(502) FL-WASP
B2: His6 tagged C. albicans FH1-FH2 domain: C. albicans FOR1 M972 to K1598 (FH1 and FH2 domains), C-terminally tagged with His6 (protein)
chain: MDPKFLQELSLKVGKAEPIQDANNKNQFGGPLSSSPEDVSQKHKTSGDSSDKDKVLSSPISSNDIKSPETGNSTTSSAAPPPPPPPPPPPPPPLPPILGGNNSSAAPPPPPPPPPPPAFLNGSGSVIPPAPPLPPPSSGRSSRSVPSTVTKSSGSAFDKIPRPKKKLKQLHWEKIDHSQVGNSFWNDPNTHTLVDDLMSKGIFDEIELIFAAKEAKKLATKKKEDLDKVTFLARDISQQFSINLHAFNSFSDEEFVLKVLRCDKDVLTNPAVLDFFGKEDIVEITNTLARNFEPYSTDYKTEEITKPEKDPNELQRPDRIYLELMYNLQHYWKSRTRALNVVVNYDKDVYEYVKKLRLIDEAVDSIKNSKHLKGVFEIILAVGNYMNDSAKQAHGFKLSSLQRLSFMKDEKNSMTFLHYVEKVIRTQYPEFLEFINELSCCNEITKFSIENINNDCKEYARAIKNVQSSIDIGNLSDVSKFHPSDRVLKAVLPALPRAKRKAELLLDQANYTMKEFDDLMKYFGEDPTDQFVKNSFISKFTDFMKDFKRVQAENIKREEELRVYEQRKKLLEKPKSSNNGDSNASDQDGESNEGDGGVMDSLLQRLKAAAPTKGESASARKKALMRK
modifications: left off: small tags and cut ends
B3: GST tagged C. albicans FH1-FH2 domain: C. albicans FOR1 M972 to K1598 (FH1 and FH2 domains), N-terminally tagged with GST-TEV (protein)
chain: B2 chain
modifications: left off: a dimerising Fc or GST
notes: C. albicans FOR1 M972 to K1598 (FH1 and FH2 domains), N-terminally tagged with GST-TEV
B4: 98 N-WASP: amino acids 98-501 of SEQ ID NO:4 (protein, listed as Homo sapiens)
chain: FVYNSPRGYFHTFAGDTCQVALNFANEEEAKKFRKAVTDLLGRRQRKSEKRRDPPNGPNLPMATVDIKNPEITTNRFYGPQVNNISHTKEKKKGKAKKKRLTKADIGTPSNFQHIGHVGWDPNTGFDLNNLDPELKNLFDMCGISEAQLKDRETSKVIYDFIEKTGGVEAVKNELRRQAPPPPPPSRGGPPPPPPPPHNSGPPPPPARGRGAPPPPPSRAPTAAPPPPPPSRPSVAVPPPPPNRMYPPPPPALPSSAPSGPPPPPPSVLGVGPVAPPPPPPPPPPPGPPPPPGLPSDGDHQVPTTAGNKAALLDQIREGAQLKKVEQNSRPVSCSGRDALLDQIRQGIQLKSVADGQESTPPTPAPTSGIVGALMEVMQKRSKAIHSSDEDEDEDDEEDFEDDD
modifications: (1)..(505) FL-N-WASP
B5: GST tagged C. albicans FH2 domain: C. albicans FOR1 A1127 to K1598 (FH2 domain only), N-terminally tagged with GST-TEV (protein)
chain: AFDKIPRPKKKLKQLHWEKIDHSQVGNSFWNDPNTHTLVDDLMSKGIFDEIELIFAAKEAKKLATKKKEDLDKVTFLARDISQQFSINLHAFNSFSDEEFVLKVLRCDKDVLTNPAVLDFFGKEDIVEITNTLARNFEPYSTDYKTEEITKPEKDPNELQRPDRIYLELMYNLQHYWKSRTRALNVVVNYDKDVYEYVKKLRLIDEAVDSIKNSKHLKGVFEIILAVGNYMNDSAKQAHGFKLSSLQRLSFMKDEKNSMTFLHYVEKVIRTQYPEFLEFINELSCCNEITKFSIENINNDCKEYARAIKNVQSSIDIGNLSDVSKFHPSDRVLKAVLPALPRAKRKAELLLDQANYTMKEFDDLMKYFGEDPTDQFVKNSFISKFTDFMKDFKRVQAENIKREEELRVYEQRKKLLEKPKSSNNGDSNASDQDGESNEGDGGVMDSLLQRLKAAAPTKGESASARKKALMRK
modifications: left off: a dimerising Fc or GST
notes: C. albicans FOR1 A1127 to K1598 (FH2 domain only), N-terminally tagged with GST-TEV
B6: WASP VCA Domain: VCA domain of WASP (SEQ ID NO:6) (protein, listed as Homo sapiens)
chain: GGRGALLDQIRQGIQLNKTPGAPESSALQPPPQSSEGLVGALMHVMQKRSRAIHSSDEGEDQAGDEDEDDEWDD
modifications: (1)..(74) WASP VCA Domain

Assays:
Arp2/3 = assay: Activities of WASP/N-WASP proteins (Table 4); assay type: biochemical
Text: The term “variant” or “analogue” generally refers to proteins that are functional equivalents to a native sequence that have similar amino acid sequences and retain, to some extent, one of the activities of the corresponding native protein. Variants/analogues include fragments that retain one or more activities of the corresponding native protein. Examples of WASP and N-WASP activity include, but are not limited to, capacity to: 1) bind Arp2/3 and actin; 2) activate the actin nucleation activity of Arp2/3 (descriptions of assays to detect nucleation activity are provided below); 3) bind an upstream regulator; 4) be regulated by one or more upstream regulators, thereby rendering the WASP or N-WASP protein able to activate the nucleation activity of Arp2/3; and 5) bind downstream regulators initiating signal transduction cascades. Some of the WASP and N-WASP proteins that are provided are able to recapitulate the full activity of WASP or N-WASP, which means that these proteins have all five of the activities just listed. […]
A third class of NPF proteins that can be utilized in some assays include WASP, N-WASP and SCAR proteins that include the WH1 domain but in which the PolyPro region is (e.g., deleted). A fourth class of NPF proteins that can be utilized in some assays are WASP, N-WASP and SCAR deletion mutants in which the PolyPro region is maintained but an N-terminal region (e.g., WH1 domain) is at least partially removed. Some proteins in this class are ones that include the B, CRIB/GBD (WASP and N-WASP), PolyPro and VCA domains, but in which some or all of the WH1 has been removed. One specific example is 98N-WASP, which includes amino acids 98-501 of SEQ ID NO:4. Another specific example is the 105WASP protein, which includes amino acids 105-501 of SEQ ID NO:2 (see FIG. 4B).
As indicated in this table, specific examples of fusion proteins that can be utilized include those that include a segment that encodes full-length WASP or N-WASP, including: Myc-WASP-TAP (SEQ ID NO:14); and Myc-N-WASP-TAP (SEQ ID NO: 16). Examples of fusion proteins that include a WASP or N-WASP deletion mutant domain include: GST-105WASP (SEQ ID NO:18); Myc-105WASP-TAP (SEQ ID NO:20); GST-tev-98N-WASP (SEQ ID NO:22); and Myc-98N-WASP-TAP (SEQ ID NO:24). The TAP tag in these particular fusion proteins has the general structure CBP-tev-ProtA (SEQ ID NO:36). Fusion proteins such as those listed in Table 4 can in some instances be utilized directly, or after one or both of the C- and N-terminal tags are removed. For example, the fusion proteins listed in Table 4 as having a TAP tag can be used once the TAP tag has been cleaved off and/or after the C-terminal tag has been removed.

[1] = Storage stability of purified formin proteins at -80 C; assay type: physicochemical; settings: storage at −80° C.
Experimental: The formins were purified on either Ni-NTA column (His6 tagged proteins) or Gluthatione-Sepharose (GST tagged proteins). Resins were equilibrated with lysis buffer. Clear crude extracts were loaded onto column, columns were washed with lysis buffer followed by washing buffer (50 mM Tris pH 8.0, 50 mM KCl, 1 mM DTT, 1 mM MgCl, 3% glycerol), and proteins were eluted with either 300 mM imidazole (His6-tagged proteins) or 10 mM glutathione (GS-tagged proteins). Eluted proteins were analyzed by SDS PAGE (4-20%) (Invitrogen, San Diego Calif.), fractions were pooled and protein concentrations were measured by Coomassie Plus (Bradford)(Bio-Rad, Hercules, Calif.). Purified proteins were “drop-frozen” in liquid nitrogen and stored at −80° C.

actin = target: T1, actin (Gallus gallus, UniProt P68139); assay: Formin nucleated actin/pyrene-actin polymerization assay; assay type: biochemical, chicken
T1 construct: from tissue
Experimental: G-Actin: Typically chicken actin was used. G-actin can be purchased from Cytoskeleton, Inc. It can also be purified according to Pardee and Spudich (1982) Methods of Cell Biol. 24:271-89, and subsequently gel filtered as discussed by MacLean-Fletcher and Pollard (1980) Biochem Biophys. Res. Commun. 96:18-27.
Acrylodan-Actin and Pyrene-Actin: Typically chicken actin was utilized. Pyrene labeled actin was prepared according to methods described in Kouyama and Mihashi (1981) Eur. J. Biochem. 114:33-38 or as described by Cooper et al. (1983) J. Muscle Res. Cell Motility 4:253-62. Alternatively, it can be purchased from Cytoskeleton, Inc. Acrylodan-labeled actin was prepared by modification of the pyrene-labeling protocol described in Cooper et al. (1983) J. Muscle Res. Cell Motility 4:253-62.
G-actin and pyrene-actin were prepared as described in Example 7.
Activity of purified formins from the constructs described above in Example 12 was assessed in an actin/pyrene-actin polymerization assay. Polymerization was carried out in G-buffer and was initiated by addition of 10× polymerization mix.
Gel filtered actin and pyrene-actin were diluted in G-buffer to the indicated final concentrations. Either purified C. albicans formin domains or formin domain-enriched fractions were added together with polymerization mix to start actin polymerization. Formin nucleated actin polymerization was monitored on a Gemini plate reader (excitation at 365 nm and emission at 407 nm). Protein components in the actin polymerization assay are provided below.

| Molecule | Activate Arp2/3? (Arp2/3) | Regulated By Which Upstream Regulators? (Arp2/3) | time stable at −80° C. [1] | also measured |
| --- | --- | --- | --- | --- |
| B1 | activate actin nucleation by Arp2/3 and Yes | regulated by Cdc42, PIP2, Nck1, and Rc1; also recorded: Cdc42, PIP2, Nck and Rac1 | – | – |
| B2 | – | – | several | formin concentration used to observe saturation (actin): 300 to 500 nM; actin nucleation activity of the formin (in words) (actin; actin […], pyrene actin 0.5 μM): active, i.e., nucleates actin polymerization |
| B3 | – | – | more than 6 months | biochemical properties compared with the other formin constructs (in words) (actin): best biochemical properties in terms of solubility, stability and activity; lag phase (actin; 100 nM formin): less than 100 s; time to reach saturation phase (actin; 100 nM formin): 400 s; activity relative to the formin purified in the single step purification (actin; after further purification on SP Sepharose): approximately 3 fold |
| B4 | Yes | Cdc42, PIP2, Nck and Rac1 | – | Activate Arp2/3? (Arp2/3; listed as 98N-WASP): activate actin nucleation by Arp2/3; Regulated By Which Upstream Regulators? (Arp2/3; listed as 98N-WASP): regulated by Cdc42, PIP2, Nck1, and Rc1 |
| B5 | – | – | several | – |
| B6 | Yes | None | – | – |
